Source: patent US7323171

Target: CD2 on human T cells (human) (UniProt P06729)
Test: cell-based or functional assay

Sequence of UniProt P06729 (P06729 25-351 limits assumed): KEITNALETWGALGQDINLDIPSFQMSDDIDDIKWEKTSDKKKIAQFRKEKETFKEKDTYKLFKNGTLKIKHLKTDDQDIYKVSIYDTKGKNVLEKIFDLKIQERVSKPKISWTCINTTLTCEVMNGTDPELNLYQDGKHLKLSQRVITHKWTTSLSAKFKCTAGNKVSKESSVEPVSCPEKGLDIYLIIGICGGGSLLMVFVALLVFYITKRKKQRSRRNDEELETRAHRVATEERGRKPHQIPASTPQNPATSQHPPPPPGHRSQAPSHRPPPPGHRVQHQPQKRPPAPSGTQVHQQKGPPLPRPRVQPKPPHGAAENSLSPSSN

With anti-CD2 monoclonal antibody TS2/18 the inhibition of allogeneic T cell activation by normal skin cells ([3H]TdR incorporation), antibody at 50 µg/ml was 40% and the inhibition of autologous T cell proliferation ([3H]TdR incorporation) in response to lesional psoriatic epidermis, antibody at 50 µg/ml was 60%.
